Test results reported in the supplement of paper PMC10567573.

B1: FAM189A2 (parent)
chain: VAAALRYLQIFATRRSCIDESQIS
B2: PTPN9 (parent)
chain: ILFSLPPALDWDSVHVPGPHAMTI

Variants of: B1
Assay: protein stability index of a GFP-peptide fusion (GPS, HEK-293T) (PSI 1-6); higher = more stable
Settings: c terminus: a fixed tail appended
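Note: lentivirally expressed fusions sorted by FACS into six bins by GFP to DsRed ratio, PSI derived from sequencing read proportions per bin multiplied by bin number.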

Protein stability index of substitutions, site by site:
L5: K 1.48, H 3.09, T 1.66, M 1.46, W 3.03, I 3.7, Y 3.26, F 2.43
C17: T 2.17, A 1.72, E 1.71, Y 3.8, Q 2.5, R 1.23
S21: I 4.41, C 1.98, L 2.45, K 2.61, E 2.91, Q 2.85
I10: M 2.68, A 1.73, P 2.77, Y 2.65, N 2.51, C 1.72, E 2.08
A2: Q 2.29, F 1.74, G 2.53, P 2.46, R 2, E 1.89, Y 2.15
Q22: P 2.26, W 3.61, K 2.53, S 2.22, E 2.15, G 3, N 1.77, Y 1.16
F11: H 2.04, Y 2.36, C 4.31, N 1.34, W 2.83, G 1.74
Q9: M 5.39, T 3.26, L 2.47, D 2.94
R6: K 1.68, D 1.69, Q 2.54, T 2.41, M 4.04, I 4.08, G 1.81, H 2.98, E 2.75, N 1.23, C 3.52, S 1.89
I23: K 1.94, P 2.46, F 2.9, W 1.87, H 1.69, G 1.52, L 1.61
A3: C 2.42, P 1.52, Y 3, T 4.19, V 3.92, G 2.61
E20: R 1.24, Q 2.35, M 2.92, A 1.65, W 4.07, L 3.32, D 2.1, N 2.85
Y7: F 3.33, C 2.06, M 2.22, G 2.02, Q 2.64, L 2.68
A12: N 1.28, K 2.13, P 3.67, Q 2.29, L 2.85, I 3.18
L8: K 1.89, I 1.98, T 2.02, C 2.81, G 1.34, V 2.6
S24: M 2.07, I 2.9, E 1.52, C 3.79, Y 1.78, A 2.76, P 4.3
R14: K 1.79, M 1.56, C 3.16, L 2.5, T 2.5, P 2.78, Q 1.91, I 3.84, H 3.33
D19: W 4.35, G 2.56, Q 1.13, E 2.01, T 2.36, L 3.03, N 2.04, R 2.05, M 3.73, F 1.75
T13: E 2.07, D 1.52, Q 2.08, V 2.99, M 3.45, G 1.72, R 1.51
A4: P 3.34, S 1.88, H 1.89, Y 2.02, Q 2.73, R 2.09, F 1.65, L 3.72, T 1.88, M 3.33
I18: Y 2.54, P 2.1, L 2.57, E 3.15, Q 1.95, T 1.75, H 1.52
R15: D 1.88, T 2.69, V 2.81, C 2.03, Q 1.67, N 1.59, L 1.35, I 1.77, P 1.52
S16: G 1.41, T 2.29, N 1.57, A 3.14, I 1.5, M 3.14
V1: W 1.79, K 1.65, M 1.95, A 3.21, T 3.71, Y 1.07, D 1.82

Variants of: B2
Assay: as above
Settings: c terminus: a fixed tail appended

Protein stability index: each site, then its substitutions
W11: D 1.75, E 1.57, C 3.67, I 3.5, A 3.48, F 3.1, G 2.23, H 2
S4: V 2.49, F 2.61, A 2.31, L 2.55, K 1.98, W 2.79, P 2.01, I 3.06, Q 3.13, M 3.28, R 2.6, G 2.46, T 2.17, E 1.75, H 3.16, N 2.5, D 2.38
L2: W 2.54, N 2.6, G 1.68, H 2.3, M 3.37, I 3.33, Q 2.47, K 2.73, P 1.93, V 2.54, F 2.06, E 2.29, A 2.12, R 1.7, D 1.26, C 3.86, T 2.62
P6: L 4.02, Y 2.91, F 1.95, I 3.44, R 3.66, G 1.32, M 1.89, K 1.97, W 2.15, C 2.37, A 3.2, Q 2.46
A8: F 3.41, T 3.32, M 4.44, N 2.04, S 3.4, D 1.92, I 1.81, W 2.68, Q 3.82, G 2.36, C 3.81, H 2.5, K 2.87, R 2.43
D10: I 2.2, W 1.9, H 3.79, L 2.22, M 3.42, K 3.67, F 2.68, A 2.86, T 2.95, V 2.05, E 1.63, G 2.28, N 1.73
L5: C 2.26, H 1.76, F 4.35, V 3.76, T 2.99, D 2.43, K 2.25, E 1.47, M 2.3, Q 1.47, I 1.33, S 2.25, R 2.93, N 1.32, W 2
L9: C 2.52, W 4.62, R 2.07, I 1.96, M 2.52, S 3.08, G 3.71, N 2.8, F 2.33, E 1.93, A 2.29, Y 4.25, T 3.24, K 2.63, D 1.83
F3: L 4.01, Q 3.1, P 2.27, C 2.62, W 1.61, H 2.03, A 1.1, M 1.21, R 2.25, S 1.49, E 1.87, I 2.7, Y 2.21, T 2.38, N 1.83, D 1.77, K 1.95
P7: N 2.98, A 1.87, V 4.23, Q 2.33, E 2.43, F 3.57, H 4.13, M 1.68, D 1.01, R 2.18, C 2.03, I 2.49
I1: Y 2.41, N 1.8, K 2.24, P 1.93, Q 1.7, S 1.99, T 2.28, G 2.6, E 1.71, V 3.38, R 2.17, H 1.56, L 1.85, M 1.7, F 1.76, A 2.03, C 1.64, W 1.93, D 2.17
